Among the data in publication PMC8135088 are Km, kcat and kcat/Km values, retold here.

The chains are these.
B1: PcPOX (pyranose 2-oxidase from Phanerochaete chrysosporium) (Phanerodontia chrysosporium) (protein)
chain: MFLDTTPFRADEPYDVFIAGSGPIGATFAKLCVDANLRVCMVEIGAADSFTSKPMKGDPNAPRSVQFGPGQVPIPGYHKKNEIEYQKDIDRFVNVIKGALSTCSIPTSNNHIATLDPSVVSNSLDKPFISLGKNPAQNPFVNLGAEAVTRGVGGMSTHWTCATPEFFAPADFNAPHRERPKLSTDAAEDARIWKDLYAQAKEIIGTSTTEFDHSIRHNLVLRKYNDIFQKENVIREFSPLPLACHRLTDPDYVEWHATDRILEELFTDPVKRGRFTLLTNHRCTKLVFKHYRPGEENEVDYALVEDLLPHMQNPGNPASVKKIYARSYVVACGAVATAQVLANSHIPPDDVVIPFPGGEKGSGGGERDATIPTPLMPMLGKYITEQPMTFCQVVLDSSLMEVVRNPPWPGLDWWKEKVARHVEAFPNDPIPIPFRDPEPQVTIKFTEEHPWHVQIHRDAFSYGAVAENMDTRVIVDYRFFGYTEPQEANELVFQQHYRDAYDMPQPTFKFTMSQDDRARARRMMDDMCNIALKIGGYLPGSEPQFMTPGLALHLAGTTRCGLDTQKTVGNTHCKVHNFNNLYVGGNGVIETGFAANPTLTSICYAIRASNDIIAKFGRHRG
B2: PcPOX (pyranose 2-oxidase from Phanerochaete chrysosporium) (Phanerodontia chrysosporium; A551N) (protein)
chain: B1 chain with A551N
B3: PcPOX (pyranose 2-oxidase from Phanerochaete chrysosporium) (Phanerodontia chrysosporium; A551L) (protein)
chain: B1 chain with A551L

Substitutions are numbered along the chain they refer to. In names and notes the source's numbering stands.

Substrate in one data set: OC[C@H]1OC[C@H](O)[C@@H](O)[C@@H]1O
The experiment in a line: purified protein. The format is biochemical, Phanerodontia chrysosporium. The conditions noted are these: 50 mM sodium phosphate pH 7.0, electron acceptor O2.
On to B1, for which the Km was 18.9 ± 4.4 mM, the kcat was 82.5 ± 10.3 s⁻¹ and the kcat/Km came to 4400 M⁻¹ s⁻¹.
Taken in the same sequence, the figures for B2 were 65.7 ± 4.5 mM, 0.253 ± 0.006 s⁻¹ and 3.8 M⁻¹ s⁻¹.
Taken in the same sequence, the figures for B3 were 26.9 ± 3.5 mM, 0.00696 ± 0.00027 s⁻¹ and 0.26 M⁻¹ s⁻¹.

Substrate in another data set: OC[C@H]1OC(O)[C@H](O)[C@@H](O)[C@@H]1O
The experiment in a line: purified protein. Type of data set: biochemical, Phanerodontia chrysosporium. The conditions noted are these: 50 mM sodium phosphate pH 7.0, electron acceptor O2.
As for B1, the Km was found to be 0.978 ± 0.156 mM, the catalytic constant (kcat) is 115 ± 2 s⁻¹ and the catalytic efficiency (kcat/Km) came to 120000 M⁻¹ s⁻¹.
Taken in the same sequence, the figures for B2 were 12.1 ± 0.3 mM, 0.496 ± 0.021 s⁻¹ and 41 M⁻¹ s⁻¹.
Taken in the same sequence, the figures for B3 were 3.44 ± 1.15 mM, 0.00659 ± 0.00129 s⁻¹ and 1.9 M⁻¹ s⁻¹.
